Source: publication PMC10673654, “MdAIL5 overexpression promotes apple adventitious shoot regeneration by regulating hormone signaling and activating the expression of shoot development-related genes”

Target: T1, MdAIL5 (Malus domestica (apple)?, UniProt A0A678R5P4 1-555)
T1 sequence: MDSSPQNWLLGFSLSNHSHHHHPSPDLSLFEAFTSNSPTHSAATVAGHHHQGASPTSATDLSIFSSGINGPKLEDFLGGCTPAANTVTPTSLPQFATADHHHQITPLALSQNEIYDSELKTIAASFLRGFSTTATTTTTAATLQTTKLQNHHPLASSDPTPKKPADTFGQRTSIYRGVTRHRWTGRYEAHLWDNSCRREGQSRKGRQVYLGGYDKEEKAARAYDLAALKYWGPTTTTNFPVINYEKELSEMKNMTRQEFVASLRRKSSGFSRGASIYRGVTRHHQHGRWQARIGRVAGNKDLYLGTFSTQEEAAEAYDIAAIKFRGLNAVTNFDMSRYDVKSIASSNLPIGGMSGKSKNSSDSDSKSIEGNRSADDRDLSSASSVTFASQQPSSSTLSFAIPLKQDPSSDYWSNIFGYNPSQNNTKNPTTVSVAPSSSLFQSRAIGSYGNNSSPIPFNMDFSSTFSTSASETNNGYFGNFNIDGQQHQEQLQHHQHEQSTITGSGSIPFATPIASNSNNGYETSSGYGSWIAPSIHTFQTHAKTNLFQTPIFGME
Test: EMSA; LightShift Chemiluminescent EMSA Kit per manufacturer; buffer, salt, pH and temperature not stated
Conditions: protein: recombinant; tags: GST (N-terminal, pGEX-4T-1); cold version unlabeled; blunt

Binder | binding result
Probe with CACAATTGCCTATG (Table S1: MdARF9pro; text and Fig. 6e: MdHB14 promoter) (dsDNA) DNA 1: TGGGCTATTACATCCCACAATTGCCTATGAGTGGCCAATTTTTCCT DNA 2: AGGAAAAATTGGCCACTCATAGGCAATTGTGGGATGTAATAGCCCA | binds
Probe with CACGCATCCCGAAG (Table S1: MdHB14pro; text and Fig. 6d: MdARF9 promoter) (dsDNA) DNA 1: CGTTACACCAAACCACACGCATCCCGAAGCGCCGTTCACGTCAA DNA 2: TTGACGTGAACGGCGCTTCGGGATGCGTGTGGTTTGGTGTAACG | binds
